Assay results reported in IntAct's records for PubMed 22705208.

B1: Fibroblast growth factor 12 (Homo sapiens), P61328-2 (parent)
chain: MESKEPQLKGIVTRLFSQQGYFLQMHPDGTIDGTKDENSDYTLFNLIPVGLRVVAIQGVKASLYVAMNGEGYLYSSDVFTPECKFKESVFENYYVIYSSTLYRQQESGRAWFLGLNKEGQIMKGNRVKKTKPSSHFVPKPIEVCMYREPSLHEIGEKQGRSRKSSGTPTMNGGKVVNQDST

Variants of: B1
Settings: with scn5a_human SCN5A

Variant | effect of a mutation on the interaction
K9E | disrupting interaction strength

Variants of: B1
Settings: with scn5a_human SCN5A
Remark: another data set of the same source

Variant | effect of a mutation on the interaction
K9E | decreasing interaction strength
